According to PMC1594584:
“And” between values parts separate entries of the source, which are not always exact repeats. Equal values may be shown once.

Key:
[1] = biological target: Aβ42 F19,20T/I31P MRF (AβMRF carrying the triple mutation Phe19,20Thr and Ile31Pro in its Aβ42 portion) (not stated | S. cerevisiae) (UniProt P05453); assay: SDS electrophoresis of SDS-stable oligomers with immunoblot; yeast lysates treated with 1% SDS for 7 min at room temperature, resolved in 1.5% agarose or 7.5% polyacrylamide gels, blotted with anti-RF (BE4) or anti-Aβ (6E10); cells also grown with 6.3 mM guanidine or with HSP104 deleted; densitometry
[2] = biological target: AβMRF (met-Aβ42-HA-M-3xHA-RF; Aβ42 fused to the N terminus of Sup35p MRF) (not stated | S. cerevisiae) (UniProt P05453); assay: as above

stoichiometry N [1]	monomer's share of the pool (HSP104 WT cells) [2] [%]	monomer's share of the pool (hsp104Δ cells) [2] [%]	stoichiometry N [2]	Substance
2	–	–	–	Aβ42 F19,20T/I31P MRF (AβMRF carrying the triple mutation Phe19,20Thr and Ile31Pro in its Aβ42 portion) (from UniProt P05453 124-685)
–	34	47	2 and 3 and 4	AβMRF (met-Aβ42-HA-M-3xHA-RF; Aβ42 fused to the N terminus of Sup35p MRF) (from UniProt P05453 124-685)
